Reference: patent publication US20200123221A1 (IMMATICS BIOTECHNOLOGIES, published 2020)

B1: TCR R16P1E8 (TCR, V domains shown)
V domain 1: QKEVEQDPGPLSVPEGAIVSLNCTYSNSAFQYFMWYRQYSRKGPELLMYTYSSGNKEDGRFTAQVDKSSKYISLFIRDSQPSDSATYLCAMSEAAGNKLTFGGGTRVLVKP
V domain 2: EAGVAQSPRYKIIEKRQSVAFWCNPISGHATLYWYQQILGQGPKLLIQFQNNGVVDDSQLPKDRFSAERLKGVDSTLKIQPAKLEDSAVYLCASSYTNQGEAFFGQGTRLTVVE
B2: TCR R17P1D7 (TCR, V domains shown)
V domain 1: QTVTQSQPEMSVQEAETVTLSCTYDTSESDYYLFWYKQPPSRQMILVIRQEAYKQQNATENRFSVNFQKAAKSFSLKISDSQLGDAAMYFCAYRWAQGGSEKLVFGKGTKLTVNP
V domain 2: DIYQTPRYLVIGTGKKITLECSQTMGHDKMYWYQQDPGMELHLIHYSYGVNSTEKGDLSSESTVSRIRTEHFPLTLESARPSHTSQYLCATELWSSGGTGELFFGEGSRLTVLE

Target: HLA-A*02-presented PRAME-004 (SEQ ID NO:97)
Assay: cell-based or functional assay

Row | Binder | EC50 of IFNγ release from CD8+ T-cells with the TCR, T2 target cells loaded with PRAME-004 from 10 µM to 10 pM
1 | B1 | ~1 µM
2 | B2 | 1.83 nM
